Test results: patent publication US20150274831A1 (Hoffmann-La Roche, published 2015)

B1: Mab 2F11 (antibody, V domains shown)
VH: QVQLKESGPGLVAPSQSLSITCTVSGFSLTTYDISWIRQSPGKGLEWLGVIWTDGGTNYNSPFMSRLSIRKDNSKSQVFLKMNRLQTDDTAIYYCVRDQRLYFDVWGAGTTVTVSS
VL: NIVMTQSPKSMSMSVGERVTLNCKASEDVNTYVSWYQQQPEQSPKLLIYGASNRYTGVPDRFTGGGSTTDFTLTISSVQAEDLADYFCGQSFSYPTFGTGTKLEIK
B2: Mab 2E10 (antibody, V domains shown)
VH: QVQLKESGPGLVAPSKSLSITCTVSGSSLDSFDISWIRQSPGKGLEWLGVIWTGGGTNYNSGFMSRLRITKDNSKSQVLLKMNSLQSDDTAIYYCVRDPRLYFDVWGAGTTVTVSS
VL: NIVMTQSPKSMSMSVGERVTLSCKASEDVVTYVSWYQQKPDQSPKLLIYGASNRYTGVPDRFTGSGSATDFTLTISSVQAEDLADYYCGQTFSYPTFGTGTKLEIK
B3: Mab 1G10 (antibody, V domains shown)
VH: RVQLKESGPGLVAPSQSLSITCTVSGFSLTSYDISWIRQSPGKGLEWLGVIWSGGGTNYNSPFMSRLRISKDDSRSQVFLKVNRLQTDDTAIYYCVRDLRLYFDVWGAGTTVTVSS
VL: KIVMTQSPKSMSVSVGERVSLSCKASEDVGTYVSWYQQKPEQSPKLLIYGSSNRYTGVPDRFTGSGSATDFTLTISSVQAEDLADYSCGQSFTYPTFGTGTKLEIK
B4: Mab 2H7 (antibody, V domains shown)
VH: QVQLKESGPGLVAPSKSLSITCTVSGSSLDSFDISWIRQPPGKGLEWLGVIWTGGGTNYNSGFMSRLRISKDNSKSQVFLKMSSLQSDDTAIYYCVRDPRLYFDVWGAGTTVTVSS
VL: NIVMTQSPKSMSMSVGERVTLSCKASEDVVTYVSWYQQKPEQSPKLLIYGASNRYTGVPDRFTGSGSATDFTLTISSIQAEDLADYYCGQTFSYPTFGTGTKLEIK

Each binder was assayed against CSF-1R on cynomolgous monocytes (native receptor of CD14-enriched peripheral blood monocytes) (cynomolgous) (assay: cell-based or functional assay).
B1 was tested, and the “% inhibition (of survival) = (100% - % survival) (CellTiterGlo; cynomolgous monocytes with 150 ng/ml huCSF-1; 5 µg/ml antibody)” value (shortened to “% inhibition (of survival) =”) was 96% and the “% survival (CellTiterGlo; cynomolgous monocytes with 150 ng/ml huCSF-1; 5 µg/ml antibody)” value was 4%. B2 was tested, and the “% inhibition (of survival) =” value was 83% and the “% survival (CellTiterGlo; cynomolgous monocytes with 150 ng/ml huCSF-1; 5 µg/ml antibody)” value was 17%. For B3, the “% inhibition (of survival) =” value was 98% and the “% survival (CellTiterGlo; cynomolgous monocytes with 150 ng/ml huCSF-1; 5 µg/ml antibody)” value was 2%. In the case of B4, the “% inhibition (of survival) =” value is reported as 92% and the “% survival (CellTiterGlo; cynomolgous monocytes with 150 ng/ml huCSF-1; 5 µg/ml antibody)” value is reported as 8%.
